Reference: PMC2943043 (Journal of neuroimmunology, 2010)

Molecular target: Human recombinant voltage-dependent anion channel (human, UniProt P21796 1-283)
Test: radioligand binding

Human recombinant voltage-dependent anion channel, sequence (P21796 whole entry): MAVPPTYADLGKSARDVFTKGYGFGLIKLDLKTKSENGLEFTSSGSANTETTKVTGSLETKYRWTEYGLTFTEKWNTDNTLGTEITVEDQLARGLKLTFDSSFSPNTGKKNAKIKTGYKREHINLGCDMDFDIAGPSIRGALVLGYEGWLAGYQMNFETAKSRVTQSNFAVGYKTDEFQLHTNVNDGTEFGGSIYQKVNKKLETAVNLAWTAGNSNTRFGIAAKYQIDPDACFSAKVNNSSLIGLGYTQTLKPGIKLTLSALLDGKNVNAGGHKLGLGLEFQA

Binder: MIAAQLLAYYFTELKDDQVKKC [HK-I peptide Met1-Lys21 (P2)]
- binding result: binds
